Results as given in patent publication US11248246B2, “Beta-glucosidase for producing glucose and laminarioligosaccharide from sea weed” (Korea University Research and Business Foundation, priority 2018, dated 2022).

Columns and labels:
[1] = Transglycosylase activity against laminaribiose (HPLC, TLC, FIG. 8); assay type: biochemical; details: 0.002 U of Bgl1B, 0.3% (w/v) of laminarin (so in the source)
Procedure: (§1) Characteristics of the enzymatic reaction of the Bgl1B protein using, as a substrate, laminarin, which is a polysaccharide, were analyzed using high performance liquid chromatography (HPLC) and thin layer chromatography (TLC). HPLC analysis was performed using Agilent 1100 HPLC equipped with a gel permeation and ligand exchange column (KS-802; Shodex) and a refractive index detector, and analysis conditions were a flow rate of 0.5 mL/min, a column temperature of 80° C., and sterile water as a mobile phase. For TLC analysis, 1 μl of a reaction product was loaded onto silica gel 60 plates (Merck), and then developed using a mixed solvent of n-butanol:acetic acid:water (volume ratio of 3:2:2), and treated with 10% (v/v) of sulfuric acid for visualization.

[2] = Substrate specificity of Bgl1B on disaccharides (TLC); assay type: biochemical; details: 0.2% (w/v) substrate, 20 mM sodium phosphate buffer (pH 6), 0.6 U of Bgl1B, 1 hour
Procedure: To confirm the substrate specificity of the Bgl1B protein, each of 0.2% (w/v) of a plurality of disaccharides in a 20 mM sodium phosphate buffer (pH 6) was allowed to react with 0.6 U of Bgl1B for 1 hour.

[3] = Hydrolysis of laminarin to glucose (HPLC); assay type: biochemical; details: 3 U of Bgl1B, 0.2% (w/v) of laminarin, 40° C., 24 hours
Procedure: as §1

[4] = Transglycosylase activity against laminarin (HPLC, TLC); assay type: biochemical; details: 0.03 U of Bgl1B, 0.2% (w/v) of laminarin, after 24 hours
Procedure: as §1

[5] = Optimum pH of Bgl1B protein (relative activity at pH 4.0-9.0); assay type: biochemical
Source text: FIG. 2 illustrates the relative activity of Bgl1B at a pH ranging from 4.0 to 9.0. […] The activity was reduced to 30% or less at a pH of 4 and at a pH of 8 or higher.

[6] = Enzymatic reaction rate (Lineweaver-Burk), laminaribiose; assay type: biochemical
Procedure: To confirm the enzymatic reaction rate of the Bgl1B protein for various substrates, the Bgl1B protein was allowed to react with each substrate at various concentrations of 0.1-0.4% (w/v) at pH 6 and 40° C. Vmax, Km, and kcat, which are parameters related to an enzymatic reaction rate, were determined from the Lineweaver-Burk plot.

[7] = Optimum temperature of Bgl1B (relative activity at 2° C. to 60° C.); assay type: biochemical
Procedure: FIG. 3 illustrates the relative activity of Bgl1B at a temperature ranging from 2° C. to 60° C. […] An enzymatic activity of approximately 83% was maintained at 20° C. […] In addition, the enzyme can be inactivated with only simple heat treatment.

[8] = Thermal stability of Bgl1B; assay type: physicochemical
Source text: FIG. 4 illustrates the stability with respect to temperature of the enzyme.

B1: Bgl1B: β-glucosidase having the amino acid sequences of SEQ ID NO: 1, from Saccharophagus degradans 2-40^T, with exo-type glucanase and transglycosylase activities (protein)
chain: MNRLTLPPSSRLRSKEFTFGVATSSYQIEGGIDSRLPCNWDTFCEQPNTIIDNTNGAIACDHINRWQDDIELIANLGVDAYRFSIAWGRVINLDGSLNNEGVTFYKNILTKLREKNLKAYITLYHWDLPQHLEDAGGWLNRDTAYKFRDYVNLITQALDDDVFCYTTLNEPFCSAYLGYEIGVHAPGIKDLASGRKAAHHLLLAHGLAMQVLRKNCPNSLSGIVLNMSPCYAGSNAQADIDAAKRADDLLFQWYAQPLLTGCYPDAINSLPDNAKPPICEGDMALISQPLDYLGLNYYTRAVFFADGNGGFTEQVPEGVELTDMGWEVYPQGLTDLLIDLNQRYTLPPLLITENGAAMVDELVNGEVNDIARINYFQTHLQAVHNAIEQGVDVRGYFAWSLMDNFEWALGYSKRFGITYVDYQTQKRTLKASGHAFAEFVSSRS
modifications: Saccharophagus degradans 2-40T
[1]
  product of transglycosylase activity (FIGS. 8A and 8B): production of DP3 was confirmed
[2]
  hydrolysis of agarotriose: unable to hydrolyze agarotriose
  hydrolysis of disaccharides with an α-linkage: unable to hydrolyze any disaccharide with an α-linkage
  hydrolysis of disaccharides with β-linkages: able to hydrolyze all disaccharides with β-linkages
[3]
  production yield of glucose from laminarin: 75%
  products of laminarin degradation (HPLC): only glucose is produced without the production of oligosaccharides
[4]
  products at very low enzyme concentration (transglycosylase activity): oligosaccharides with low degrees of polymerization such as DP2, DP3, and DP4 were produced
[5]; 0.1% (w/v) cellobiose, 40° C., 15 minutes, pH 4.0-9.0
  pH of highest activity: 6
[5]; about pH 5 to about pH 7.5
  enzymatic activity at about pH 5 to about pH 7.5: ≥ 80%
[5]; pH 4, 0.1% (w/v) cellobiose, 40° C., 15 minutes
  relative activity at a pH of 4: ≤ 30%
[5]; pH 8 or higher, 0.1% (w/v) cellobiose, 40° C., 15 minutes
  relative activity at a pH of 8 or higher: ≤ 30%
[6]; Table 2 substrates compared
  substrate specificity in a collective view of the parameters: highest substrate specificity for laminaribiose
[6]; laminaribiose, compared to the commercialized enzyme Novozyme 188
  lower Km compared to Novozyme 188: 2.5 fold
[7]; 50° C. or higher
  enzymatic activity at 50° C. or higher: sharply reduced
[7]; pH 6, 2-10° C.
  enzymatic activity at 2-10° C.: ≥ 58%
[7]; pH 6, 10° C. to 40° C.
  enzymatic activity at pH 6 and 10° C. to 40° C.: ≥ 80%
[7]; pH 6, 20° C.
  enzymatic activity maintained at 20° C.: approximately 83%
[7]; pH 6, range 2° C. to 60° C.
  temperature of highest enzymatic activity: 40 °C
[8]; after reaction at 40° C. for 1 hour
  enzymatic activity maintained after heat: 80%
[8]; after reaction at 50° C. or higher for 1 hour
  enzymatic activity after heat: almost no activity
